Results on twelve sequences are retold here after patent US20110207132.

In the data set the test system is BfuCI restriction endonuclease. The data set is described as follows: cleavage_in_vitro. The conditions noted are these: for binding signal (signal/no-template): after 25 min.
[1] abbreviates: phosphorothioate 5' of GATC in probe B.
Where [2] appears, read: phosphorothioate 5' of GATC in probe B, JP3 cleaved greater than four times faster.

A value given as a limit tells only on which side of the number the result lay.

For the sequence “AGAGTCCACCAAGCTTCAGATTAG / TCTGAAGCTTTGATC / AAAAGATCAAATTGGTGGACTCTAAAA [JP3]”, where the note is “phosphorothioate 5' of GATC in probe B, average rate first 5 min, 7-fold signal enhancement over JP2”, the activity is 0.9 nM/min. Take “AGAGTCCACCAAGCTTCAGATTAG / TCTGAAGCTTTGATC / AAAAGATCAAATTGGTGGACTCTAAAA [JP4]”: the binding signal (phosphorodithioate 5' of GATC in probe B, fluorescence enhancement) was 3 fold vs JP2. In turn, “AGAGTCCACCAAGCTTCAGATTAG / TCTGAAGCTTTGATC / AAAAGATCAAATTGGTGGACTCTAAAA [T1/A/B junction probe (JP2)]” displayed a binding signal (fold vs no template) (NEBuffer 4, 10 mM Mg, 30 C, 5 h) of 60. “AGAGTCCACCAAGCTTCAGATTAG / TCTGAAGCTTTGATC / AGTAACGGAAAACCGTTACTAAAAGATCAAATTGGTGGACTCT [JP10]” displayed a binding signal (signal/no-template) under setting [1] of 4.7. Sequence “AGAGTCCACCAAGCTTCAGATTAG / TCTGAAGCTTTGATC / AGTAACGGAAAACCGTTACTAAAAGATCAATTTGGTGGACTCT [JP13]” registered a binding signal (signal/no-template) under setting [1] of 13.5.

“AGAGTCCACCAAGCTTCAGATTAG / TCTGAAGCTTTGATC / AGTAACGGAAAACCGTTACTAAAAGATCATATTGGTGGACTCT [JP14]” had a binding signal (signal/no-template) under setting [1] of 9. For “AGAGTCCACCAAGCTTCAGATTAG / TCTGAAGCTTTGATC / CCCCGATCAAATTGGTGGACTCTAAAA [JP8]”, the binding signal under setting [2] was less than 0.25 fold vs JP3. “AGAGTCCACCAAGCTTCAGATTAG / TCTGAAGCTTTGATC / GGGGGATCAAATTGGTGGACTCTAAAA [JP7]” gave a binding signal under setting [2] of less than 0.25 fold vs JP3.

Regarding “AGAGTCCACCAAGCTTCAGATTAG / TCTGAAGCTTTGATC / TGGATCGGAAAACCGATCCAGATCATATTGGTGGACTCT [JP18]”, where the note is “phosphorothioate 5' of each GATC in probe B, initial rate, NEBuffer 4, 10 mM Mg, 30 C”, the activity was determined as 82 nM/min. As for “AGAGTCCACCAAGCTTCAGATTAG / TCTGAAGCTTTGATC / TGTAACGGAAAACCGTTACAGATCAAATTGGTGGACTCT [JP12]”, the activity (phosphorothioate 5' of GATC in probe B, average rate first 5 min, 30 C) is 39 nM/min. For “AGAGTCCACCAAGCTTCAGATTAG / TCTGAAGCTTTGATC / TGTAACGGAAAACCGTTACAGATCATATTGGTGGACTCT [JP16]”, where the note is “phosphorothioate 5' of GATC in probe B, initial rate, 30 C”, the activity amounted to 43 nM/min. The sequence “AGAGTCCACCAAGCTTCAGATTAG / TCTGAAGCTTTGATC / TTTTGATCAAATTGGTGGACTCTAAAA [JP9]” yielded a binding signal under setting [2] of less than 0.25 fold vs JP3.
